Results taken from the supplement of paper PMC9876800.

System: peptide library, one residue held at a place counted from the S/T acceptor
Experiment: relative phosphorylation of the sub-library (ratio to the mean residue at this position); higher = residue favoured
In short: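 Relative sub-library phosphorylation is a ratio to the mean residue at the same position. Purified recombinant kinases were incubated under kinase-specific conditions with biotinylated degenerate peptide sub-libraries, each fixing one residue at one position around a central Ser/Thr, using 50 μM peptide and 50 μM ATP spiked with γ-32P-ATP for 90 min. Spots captured on streptavidin membranes were phosphorimaged and quantified by densitometry.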

Chain of RPS6KA1, construct: Full length, human (Q15418 whole entry, looked up): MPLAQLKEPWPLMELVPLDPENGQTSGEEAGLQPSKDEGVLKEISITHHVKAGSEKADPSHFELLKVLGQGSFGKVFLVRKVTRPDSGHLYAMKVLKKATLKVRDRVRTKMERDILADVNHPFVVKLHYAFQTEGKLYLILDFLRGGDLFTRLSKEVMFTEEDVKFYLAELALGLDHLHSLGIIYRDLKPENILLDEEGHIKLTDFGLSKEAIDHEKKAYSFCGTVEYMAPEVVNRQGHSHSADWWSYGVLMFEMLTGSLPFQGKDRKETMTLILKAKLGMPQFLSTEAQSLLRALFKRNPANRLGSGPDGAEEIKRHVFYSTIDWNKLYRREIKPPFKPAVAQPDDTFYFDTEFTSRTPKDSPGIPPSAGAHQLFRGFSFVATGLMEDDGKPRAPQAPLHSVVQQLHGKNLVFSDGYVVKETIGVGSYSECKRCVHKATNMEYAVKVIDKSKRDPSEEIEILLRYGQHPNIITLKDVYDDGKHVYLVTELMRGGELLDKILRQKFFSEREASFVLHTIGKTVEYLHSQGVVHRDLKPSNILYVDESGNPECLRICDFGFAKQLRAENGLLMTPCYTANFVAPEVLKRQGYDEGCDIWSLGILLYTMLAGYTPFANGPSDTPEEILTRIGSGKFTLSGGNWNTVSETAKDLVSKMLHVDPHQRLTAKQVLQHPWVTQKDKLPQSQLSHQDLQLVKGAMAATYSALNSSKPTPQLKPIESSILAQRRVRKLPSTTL

PRKG1, construct: Full length, human (from UniProt Q13976)
relative phosphorylation
Details | at +1 | at +2 | at +3 | at +4 | at -1 | at -2 | at -3 | at -4 | at -5
A fixed | 0.819 | 1.43 | 0.964 | 0.841 | 0.831 | 0.24 | 0.611 | 1.1 | 1.11
D fixed | 0.195 | 0.45 | 0.572 | 0.5 | 0.21 | 0.0553 | 0.075 | 0.315 | 0.381
E fixed | 0.236 | 0.242 | 0.458 | 0.419 | 0.193 | 0.0546 | 0.0892 | 0.395 | 0.517
F fixed | 1.29 | 1.16 | 1.23 | 1.13 | 1.05 | 0.201 | 0.447 | 0.986 | 1.08
G fixed | 0.479 | 0.901 | 1.06 | 1.07 | 0.416 | 0.248 | 0.684 | 0.878 | 1.06
H fixed | 1.2 | 1.62 | 1.49 | 1.31 | 1.25 | 0.518 | 1.48 | 1.3 | 1.24
I fixed | 1.73 | 1.25 | 1.02 | 1.19 | 0.958 | 0.168 | 0.262 | 0.75 | 0.82
K fixed | 0.623 | 0.642 | 0.669 | 0.715 | 1.42 | 5.12 | 2.17 | 1.53 | 1.43
L fixed | 1.45 | 0.936 | 1.07 | 1.22 | 1.33 | 0.166 | 0.239 | 0.996 | 0.779
M fixed | 1.56 | 1.03 | 1.26 | 1.22 | 1.43 | 0.171 | 0.351 | 1.31 | 0.877
N fixed | 0.589 | 0.94 | 0.909 | 1.15 | 0.787 | 0.264 | 0.329 | 0.891 | 0.905
P fixed | 0.177 | 0.576 | 0.743 | 1.35 | 0.718 | 0.13 | 0.421 | 0.58 | 0.8
Q fixed | 0.967 | 1.16 | 0.964 | 1.02 | 0.868 | 0.402 | 0.674 | 0.851 | 0.848
R fixed | 0.982 | 0.6 | 0.861 | 0.754 | 1.95 | 8.27 | 7.6 | 2.14 | 1.81
V fixed | 2.26 | 1.53 | 1.03 | 0.847 | 1.16 | 0.544 | 0.273 | 0.77 | 0.914
W fixed | 1.12 | 1.35 | 1.33 | 1.24 | 0.797 | 0.22 | 0.482 | 1.06 | 1.25
Y fixed | 1.33 | 1.2 | 1.38 | 1.02 | 1.64 | 0.23 | 0.82 | 1.15 | 1.19
pThr fixed | 0.343 | 0.228 | 0.412 | 0.444 | 0.174 | 0.142 | 0.214 | 0.542 | 0.627
pTyr fixed | 0.365 | 0.324 | 0.493 | 0.5 | 0.324 | 0.098 | 0.248 | 0.487 | 0.659

RPS6KA1, construct: Full length, human (from UniProt Q15418)
relative phosphorylation
Details | at +1 | at +2 | at +3 | at +4 | at -1 | at -2 | at -3 | at -4 | at -5
A fixed | 0.899 | 1.02 | 0.983 | 0.839 | 0.926 | 0.75 | 0.694 | 1.2 | 0.916
D fixed | 0.459 | 0.887 | 1.1 | 1.25 | 0.593 | 0.724 | 0.524 | 0.574 | 0.439
E fixed | 0.784 | 0.691 | 1.13 | 1.03 | 0.408 | 0.614 | 0.424 | 0.703 | 0.364
F fixed | 1.09 | 0.767 | 1 | 0.816 | 0.796 | 0.684 | 0.365 | 0.817 | 0.822
G fixed | 0.654 | 0.939 | 1.08 | 0.985 | 1.19 | 1.2 | 0.737 | 1.22 | 0.977
H fixed | 1.15 | 1.55 | 1.24 | 1.05 | 1.06 | 1.14 | 0.549 | 0.857 | 0.935
I fixed | 1.3 | 1.05 | 0.853 | 0.76 | 0.404 | 0.546 | 0.331 | 0.931 | 0.849
K fixed | 0.881 | 0.77 | 0.686 | 1.14 | 1.21 | 1.86 | 1.32 | 1.63 | 1.84
L fixed | 0.969 | 0.816 | 1.05 | 0.785 | 0.942 | 1.14 | 0.388 | 0.895 | 1.18
M fixed | 1.1 | 0.774 | 0.93 | 0.791 | 1.04 | 0.897 | 0.487 | 1.05 | 0.72
N fixed | 1.02 | 1.04 | 0.822 | 1.01 | 1.14 | 0.732 | 0.506 | 0.722 | 0.67
P fixed | 0.625 | 0.615 | 0.914 | 1.47 | 2.71 | 0.581 | 0.76 | 0.979 | 0.993
Q fixed | 1.39 | 0.817 | 0.94 | 1.21 | 0.997 | 1.15 | 0.538 | 0.83 | 0.696
R fixed | 1.07 | 1.2 | 0.875 | 0.914 | 1.25 | 3.29 | 8.19 | 2.05 | 2.91
V fixed | 1.62 | 1.14 | 0.801 | 0.819 | 0.592 | 0.441 | 0.315 | 0.79 | 0.75
W fixed | 0.884 | 1.16 | 1.34 | 1.16 | 0.739 | 0.597 | 0.482 | 0.978 | 1.1
Y fixed | 1.1 | 1.77 | 1.26 | 0.969 | 1.01 | 0.649 | 0.39 | 0.779 | 0.841
pThr fixed | 1.51 | 0.917 | 1.17 | 1.95 | 0.284 | 0.293 | 0.348 | 0.573 | 0.527
pTyr fixed | 1.32 | 0.957 | 1.59 | 1.17 | 0.522 | 0.33 | 0.332 | 0.413 | 0.526
